Measured values: publication PMC11980582, “The human microbiome-derived antimicrobial lugdunin self-regulates its biosynthesis by a feed-forward mechanism”

How the values were obtained:
[1] = test system: T1, LugJ (Staphylococcus lugdunensis IVK28), ORF:22db99f4; assay: EMSA; details: 10 mM Tris/HCl pH 7.4, 10 mM NaCl (LugJ) or 100 mM NaCl (LugR), 0.1 mg/mL BSA, 1 mM DTT, 1 mM EDTA, 10% glycerol, 30 min at 25 C, 20 ul; 5% native PAGE
T1 sequence: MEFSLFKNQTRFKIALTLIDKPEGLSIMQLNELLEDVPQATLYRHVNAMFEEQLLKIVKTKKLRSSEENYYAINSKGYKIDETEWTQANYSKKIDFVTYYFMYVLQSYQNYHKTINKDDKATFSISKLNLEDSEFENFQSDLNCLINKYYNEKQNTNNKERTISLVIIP

[2] = test system: T1, LugJ (Staphylococcus lugdunensis IVK28), ORF:22db99f4; assay: competition; details: 10 mM Tris/HCl pH 7.4, 10 mM NaCl (LugJ) or 100 mM NaCl (LugR), 0.1 mg/mL BSA, 1 mM DTT, 1 mM EDTA, 10% glycerol, 30 min at 25 C, 20 ul; 5% native PAGE
LugR = target: T2, LugR (Staphylococcus lugdunensis IVK28, UniProt A0A292DID1 1-196); assay: competition; 2 uM LugR; 50 or 100 ng competitor vs PlugR; 10 mM Tris/HCl pH 7.4, 10 mM NaCl (LugJ) or 100 mM NaCl (LugR), 0.1 mg/mL BSA, 1 mM DTT, 1 mM EDTA, 10% glycerol, 30 min at 25 C, 20 ul; 5% native PAGE; details: protein: recombinant; tags: 8xHis (N-terminal, pET-28a derived); chain copies: 2; label: none; blunt
T2 sequence: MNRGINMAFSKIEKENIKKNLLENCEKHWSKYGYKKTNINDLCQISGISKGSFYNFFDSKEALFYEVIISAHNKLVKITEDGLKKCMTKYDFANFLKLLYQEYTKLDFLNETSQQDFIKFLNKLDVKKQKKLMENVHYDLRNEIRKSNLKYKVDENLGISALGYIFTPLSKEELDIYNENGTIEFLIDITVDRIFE

For “ACATAACACCTCACTTTATACATAATAATTGATTTTTAAATAAATGTACAGTAACATTATCATTATCAATAATGATAATGGAGGGTGAAAATG (double strand) [PlugI promoter fragment]”, the binding [1] was “binds”.

With “ACATAACACCTCACTTTATACATAATAATTGATTTTTAAATAAATGTACAGTAACATTATCATTATCAATAATGATAATGGAGGGTGAAAATG (double strand) [cold PlugI]” the binding [2] was “binds”.

B1: PallugR native (dsDNA)
DNA 1: GATAAAAGTGACTAGAAAAATTTATTTGGTCATAAATGAATAG
DNA 2: CTATTCATTTATGACCAAATAAATTTTTCTAGTCACTTTTATC
B1: binds (LugR).
